According to US20090191195A1 (MacroGenics, published 2009):

Biological target: T1, human FcγRIIB (human, UniProt P31994 43-310)
T1 construct: whole, on cells; Native receptor on human cells or in frozen tissue sections; also called CD32B
T1 sequence (looked up): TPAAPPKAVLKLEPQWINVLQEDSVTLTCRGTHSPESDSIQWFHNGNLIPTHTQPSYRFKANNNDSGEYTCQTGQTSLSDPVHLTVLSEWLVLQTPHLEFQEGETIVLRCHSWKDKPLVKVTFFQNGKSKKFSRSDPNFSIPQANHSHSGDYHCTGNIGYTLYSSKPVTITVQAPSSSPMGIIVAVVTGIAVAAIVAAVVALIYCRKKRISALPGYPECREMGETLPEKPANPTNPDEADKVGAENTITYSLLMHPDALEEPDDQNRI
Assay: immunohistochemistry, frozen lymph node, patient MG04-CHTN-19; grade = share of positive cells
Description: The remaining portions of these samples were placed in cryomolds and embedded in OCT cryocompound (Tissue-Tek). Once the blocks were ready, each was sectioned under a Cryostat (Leica Microsystems) at 6 microns. The slides were placed in 4° C. acetone and fixed for 10 minutes. Hours after fixation the slides were air dried and washed with phosphate buffer saline (PBS). Then endogenous peroxide activity was blocked by a 30 minute incubation in a 0.3% hydrogen peroxide solution. The slides were washed in PBS and incubated for 30 minutes with 10% normal goat serum in 2% normal human serum. After this step, the slides were divided in two groups. Two monoclonal antibodies were utilize and incubated on the same tissue in parallel, an anti-CD20 (1F5—a hybridoma, ATCC No. HB-9645, purified at Macrogenics) and the murine monoclonal anti-CD32B antibody, 2B6. Each group was incubated with one monoclonal antibody and their respective Isotype control, IgG1 (BD Biosciences, San Jose, Calif.) for the 2B6/anti-CD32B group and IgG2a (BD Biosciences) for the 1F5/anti-CD20 group. Mouse IgG1 and murine IgG2a were used as Isotype controls for anti-CD32B and anti-CD20, respectively. After one hour of incubation at room temperature, the slides were washed in PBS and incubated with a secondary antibody Goat anti Mouse labeled peroxidase (Jackson ImmunoResearch Laboratories, West Grove, Pa.). […]

- binding result: binds
B1: monoclonal antibody produced by clone 2B6 (ATCC accession number PTA-4591) (antibody, V domains shown)
VH: QVQLQQPVTELVRPGASVMLSCKASDYPFTNYWIHWVKQRPGQGLEWIGVIDPSDTYPNYNKKFKGKATLTVVVSSSTAYMQLSSLTSDDSAVYYCARNGDSDYYSGMDYWGQGTSVTVSS
VL: DILLTQSPAILSVSPGERVSFSCRTSQSIGTNIHWYQQRTNGFPRLLIKNVSESISGIPSRFSGSGSGTDFILSINSVESEDIADYYCQQSNTWPFTFGGGTKLEIK
notes: Mouse hybridoma antibody; mouse IgG1 was used as its isotype control; also called murine monoclonal anti-CD32B antibody, 2B6; anti-CD32B
